# Measurements as given in patent publication US20260183408A1, “POLYPEPTIDE AND USE THEREOF” (SHENZHEN CHENYANG BIOLOGICAL TECHNOLOGY CO., LTD, priority 2022, published 2026).
# Ends that are not written are not given here.
# T1: 5-HT2CR (Mus musculus, UniProt P34968)
# T1 construct: The dissolved mouse hippocampal tissue extract (with 500 μg protein); from tissue; host or cells: mouse hippocampus
# T1 sequence (P34968 33-459): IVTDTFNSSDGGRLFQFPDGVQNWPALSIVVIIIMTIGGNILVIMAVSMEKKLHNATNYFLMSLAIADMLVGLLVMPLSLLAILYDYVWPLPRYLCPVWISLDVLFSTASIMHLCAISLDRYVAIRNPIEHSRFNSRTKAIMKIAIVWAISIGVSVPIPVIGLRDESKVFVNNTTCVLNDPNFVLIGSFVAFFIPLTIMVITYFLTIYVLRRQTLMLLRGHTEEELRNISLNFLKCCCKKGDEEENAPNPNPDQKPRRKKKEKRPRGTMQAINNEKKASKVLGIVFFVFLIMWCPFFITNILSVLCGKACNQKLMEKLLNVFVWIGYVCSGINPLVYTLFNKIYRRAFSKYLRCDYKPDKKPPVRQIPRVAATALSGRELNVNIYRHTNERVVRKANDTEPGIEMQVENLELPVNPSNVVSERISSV
# Target: T1, 5-HT2CR
# Assay: GST pulldown assay for mouse hippocampal tissue with D2R fragments
# Assay type: binding
# Settings: GST fusion protein of the D2R region, mouse hippocampal tissue extract, Western blotting (FIG. 4)
# From the text: In order to identify the binding site of the D2R/5-HT2CR complex, full-length D2R cDNA clone (Genbank Accession No. X51645) was first amplified to obtain the cDNA fragments of the CT region of D2R (D2R-CT, T428-C443) and the third intracellular loop (IL3) region of D2R (D2R-IL3, K211-Q373). These fragments were subcloned into the BamH1/EcoR1 or BamH1/Xho1 site of pGEX-4T-3 plasmids (YouBio no: VT1255). The initiation methionine residue and the termination codon were incorporated when appropriate. All constructs were resequenced to confirm that the splicing fusion was properly achieved. E. coli BL21 viable cells (KangTi Life Technology, no: KTSM104L) were used for expression, and purification was performed to obtain the GST fusion protein containing the IL3 region of D2R (GST-D2R-IL3) and the GST fusion protein containing the CT region of D2R (GST-D2R-CT) from the bacterial lysates.
# The dissolved mouse hippocampal tissue extract (with 500 μg protein) was diluted with 1×PBS/1% Triton X-100 and subsequently incubated with 20 μl of protein-GST-resin saturated with only GST protein or 15 μg of the GST fusion protein described above overnight at 4° C. Beads were washed with 1×PBS/1% Triton X-100 for 1-8 times. The bound proteins were eluted with SDS-PAGE Protein Loading Buffer (YeSen, no: 20315ES05), separated with SDS-PAGE, and subjected to Western blotting with their respective antibodies. Results were as shown in panel A of FIG. 4.
# According to the method in this Example, pulldown analysis was performed using the GST fusion protein containing the KVC region of D2R (GST-D2R-KVC), the GST fusion protein containing the ES region of D2R (GST-D2R-ES), and the GST fusion protein containing the PQ region of D2R (GST-D2R-PQ), and the Western blotting results were shown in panel B of FIG. 4. […]
row,Molecule,pull down of 5-HT2CR
1,"KL polypeptide: K226-L240 region of D2R, SEQ ID NO: 1; tested in the pulldown as GST fusion protein GST-D2R-KL (KRSSRAFRAHLRAPL)",could associate with 5-HT2CR
2,KVC region of D2R: GST fusion protein containing the KVC (K211-V270) region of D2R (KIYIVLRRRRKRVNTKRSSRAFRAHLRAPLKGNCTHPEDMKLCTVIMKSNGSFPVNRRRV; cysteine pairing not given here; also: GST fusion protein),could pull down the 5-HT2CR
3,"IL3 region of D2R: GST fusion protein containing the third intracellular loop (IL3) region of D2R, K211-Q373 (protein, left off: a dimerising Fc or GST; large carriers; small tags and cut ends, GST fusion protein containing the third intracellular loop (IL3) region of D2R, K211-Q373) KIYIVLRRRRKRVNTKRSSRAFRAHLRAPLKGNCTHPEDMKLCTVIMKSNGSFPVNRRRVEAARRAQELEMEMLSSTSPPERTRYSPIPPSHHQLTLPDPSHHGLHSTPDSPAKPEKNGHAKDHPKIAKIFEIQTMPNGKTRTSLKTMSRRKLSQQKEKKATQ",could pull down the 5-HT2CR
